{
  "source": "patent US8946384",
  "key": {"[1]": {"target": "T1, recombinant Stx2B (B subunit of type-2 Shiga toxin) (E. coli EHEC O157: H7), P09386", "T1 chain": "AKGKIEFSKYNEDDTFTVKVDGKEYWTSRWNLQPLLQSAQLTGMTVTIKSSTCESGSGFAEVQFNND"}, "[2]": {"target": "T2, recombinant type-2 Shiga toxin (Stx2) holotoxin (E. coli EHEC O157: H7), P09385", "T2 chain 1": "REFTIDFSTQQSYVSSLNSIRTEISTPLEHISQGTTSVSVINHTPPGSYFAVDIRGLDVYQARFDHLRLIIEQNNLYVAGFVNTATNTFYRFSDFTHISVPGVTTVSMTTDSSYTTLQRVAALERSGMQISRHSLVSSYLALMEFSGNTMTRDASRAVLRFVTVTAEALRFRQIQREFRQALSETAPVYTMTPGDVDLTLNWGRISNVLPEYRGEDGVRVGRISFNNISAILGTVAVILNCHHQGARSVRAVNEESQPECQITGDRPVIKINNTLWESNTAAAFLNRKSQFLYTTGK", "T2 chain 2": "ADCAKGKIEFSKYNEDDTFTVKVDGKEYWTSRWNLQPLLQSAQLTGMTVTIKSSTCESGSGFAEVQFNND"}},
  "data": [
    {"binder": "TFNMWLPTFNQW (modifications not checked)", "note": "[polypeptide TF1]", "values": [
      {"measurement": "percent of HeLa cells showing fluorescence", "setting": "[1]", "result": 52.8, "unit": "%"},
      {"measurement": "percent of binding between FITC-Stx2B and HeLa cells blocked", "setting": "[1]", "result": 45.7, "unit": "%"},
      {"measurement": "Kd", "setting": "[2]", "result": 1.25, "unit": "µM"}
    ]},
    {"binder": "WAPWYSFTSYHL (modifications not checked)", "note": "[polypeptide WA8]", "values": [
      {"measurement": "blocking rate of binding between FITC-Stx2B and HeLa cells", "setting": "[1]", "result": 24.8, "unit": "%"},
      {"measurement": "Kd", "setting": "[2]", "result": 24.8, "unit": "µM"}
    ]}
  ]
}
